Results on five substances are retold here after publication PMC10272835, “Exploration of T cell immune responses by expression of a dominant-negative SHP1 and SHP2” (Frontiers in Immunology, 2023).

For experiment [1], the target named is phosphorylated PD1 ITSM peptide. The experiment can be described thus: ELISA; peptides coated at 0.5 µg/ml on Nunc MaxiSorp plates; His-tagged SH2 protein from 10 µg/ml with 1:3 serial dilutions in PBS 0.5% BSA; detected with anti-His-tag antibody, absorbance at 450 nm.
The target of experiment [2] is phosphorylated PD1 ITIM peptide. Described as above.

In the case of “C-terminal SH2 domain of SHP1 (domain or fragment)”, the values for the EC50 in experiment [1] and in experiment [2] were 1.69 nM and 33.7 nM, respectively.
The corresponding values for “C-terminal SH2 domain of SHP2 (domain or fragment)” are 1.85 nM and 5.56 nM.
For the substance “N-terminal SH2 domain of SHP2 (domain or fragment)”, the values for the EC50 in experiment [1] and in experiment [2] were 4.58 nM and 12 nM, respectively.
On the same counts, the results for “dual SH2 domains of SHP1 (domain or fragment)” are 15.3 nM and 21.4 nM.
The corresponding values for “dual SH2 domains of SHP2 (domain or fragment)” are 1.24 nM and 1.69 nM.
